Patent US6235711A, “Cell adhesion ihibiting compounds” (Zeneca Limited, priority 1996, dated 2001)
Positions of bridges follow the written chain, without caps; N, C: chain ends. Non-standard residues stand in square brackets, D forms with d. Residues, ends and D or L forms follow the SMILES beside them. No end group written: not given here. *: point of attachment. Acetyl(1-adamantyl) = O=C(CC12CC3CC(CC(C3)C1)C2)*; NMeF = CN[C@@H](Cc1ccccc1)C(=O)O

What was measured:
α4β1 = biological target: T1, α4β1 (Homo sapiens, UniProt P05556+P13612); settings: Jurkat cells; read-out: IC50, blocking Jurkat cell adhesion to CS-1 coated plates; cited from earlier work
T1 construct: host or cells: Jurkat cells (endogenous integrin)
T1 sequence (P13612 34-1032): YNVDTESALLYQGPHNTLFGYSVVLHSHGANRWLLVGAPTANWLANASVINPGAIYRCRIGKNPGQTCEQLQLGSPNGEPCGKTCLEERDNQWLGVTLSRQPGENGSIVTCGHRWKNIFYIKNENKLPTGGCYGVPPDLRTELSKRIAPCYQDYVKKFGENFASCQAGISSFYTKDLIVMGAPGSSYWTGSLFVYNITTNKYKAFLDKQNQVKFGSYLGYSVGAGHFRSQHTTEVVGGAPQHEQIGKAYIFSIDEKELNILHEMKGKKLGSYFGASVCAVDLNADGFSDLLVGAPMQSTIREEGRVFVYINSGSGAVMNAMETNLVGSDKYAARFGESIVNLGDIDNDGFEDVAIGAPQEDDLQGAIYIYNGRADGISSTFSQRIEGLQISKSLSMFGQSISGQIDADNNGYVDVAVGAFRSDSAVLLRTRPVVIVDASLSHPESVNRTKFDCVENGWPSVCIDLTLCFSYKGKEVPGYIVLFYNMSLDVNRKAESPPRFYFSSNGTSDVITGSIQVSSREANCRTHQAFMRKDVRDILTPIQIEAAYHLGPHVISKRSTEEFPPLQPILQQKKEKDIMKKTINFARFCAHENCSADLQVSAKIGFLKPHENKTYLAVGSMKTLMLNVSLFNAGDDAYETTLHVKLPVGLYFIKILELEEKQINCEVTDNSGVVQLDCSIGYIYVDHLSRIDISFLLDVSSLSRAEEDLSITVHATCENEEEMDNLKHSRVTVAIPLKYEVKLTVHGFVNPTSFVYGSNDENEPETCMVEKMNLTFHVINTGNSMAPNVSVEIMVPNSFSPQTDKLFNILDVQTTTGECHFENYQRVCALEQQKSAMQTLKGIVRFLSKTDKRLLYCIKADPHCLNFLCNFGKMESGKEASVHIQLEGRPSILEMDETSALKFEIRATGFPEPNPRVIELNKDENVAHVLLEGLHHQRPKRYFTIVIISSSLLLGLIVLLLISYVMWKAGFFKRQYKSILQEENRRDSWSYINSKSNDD
T1 sequence (P05556 21-798): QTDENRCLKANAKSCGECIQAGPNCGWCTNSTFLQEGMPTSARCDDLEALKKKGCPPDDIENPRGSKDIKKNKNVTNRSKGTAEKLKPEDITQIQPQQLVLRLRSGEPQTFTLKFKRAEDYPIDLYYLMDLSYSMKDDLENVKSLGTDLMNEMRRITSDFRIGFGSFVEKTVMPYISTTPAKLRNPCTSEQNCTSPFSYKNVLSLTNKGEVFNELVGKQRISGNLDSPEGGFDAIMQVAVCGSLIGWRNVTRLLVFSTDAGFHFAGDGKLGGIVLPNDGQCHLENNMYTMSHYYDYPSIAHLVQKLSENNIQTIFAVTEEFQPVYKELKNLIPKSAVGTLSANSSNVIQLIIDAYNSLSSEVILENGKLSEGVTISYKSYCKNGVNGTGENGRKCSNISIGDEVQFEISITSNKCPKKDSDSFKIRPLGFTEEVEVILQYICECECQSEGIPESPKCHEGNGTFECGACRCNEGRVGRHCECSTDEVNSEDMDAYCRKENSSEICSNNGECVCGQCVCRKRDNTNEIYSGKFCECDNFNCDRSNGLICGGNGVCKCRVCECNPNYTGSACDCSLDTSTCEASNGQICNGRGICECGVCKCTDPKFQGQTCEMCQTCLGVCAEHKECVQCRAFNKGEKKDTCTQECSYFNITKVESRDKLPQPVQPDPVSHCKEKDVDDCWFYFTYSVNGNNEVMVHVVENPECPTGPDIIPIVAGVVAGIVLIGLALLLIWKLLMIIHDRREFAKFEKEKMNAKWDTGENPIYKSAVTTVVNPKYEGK

[1] = tested on: αvβ3 as well as αIIbβIIIa; settings: cited from earlier work
fibronectin [2] = biological target: T2, fibronectin (Homo sapiens, UniProt P05556+P13612); settings: cited from earlier work
T2 construct: host or cells: Jurkat cells; fibronectin coated on plates
T2 sequence (P13612 34-1032): as the sequence (P13612 34-1032) above
T2 sequence (P05556 21-798): as the sequence (P05556 21-798) above

[3] = biological target: T3, VCAM-1-IgG fusion protein (Homo sapiens, UniProt P05556+P13612); settings: HL-60 cells; read-out: IC50, binding of HL-60 cells to VCAM-1-IgG fusion protein; cited from earlier work
T3 construct: host or cells: HL-60 cells (endogenous integrin); VCAM-1-IgG fusion protein of unstated origin
T3 sequence (P13612 34-1032): as the sequence (P13612 34-1032) above
T3 sequence (P05556 21-798): as the sequence (P05556 21-798) above

Balb/C female mice = assay: In vivo ovalbumin delayed type hypersensitivity model; settings: ovalbumin in the footpad
Description: Balb/C female mice (20-25 g) were immunised on the flank with an emulsion of ovalbumin (Sigma; 0.1 ml subcutaneous injection of 2 mg/ml solution mixed (1:1) with complete Freunds adjuvant; Difco). Seven days later the mice were challenged by subplantar injection of ovalbumin (30 μl of 1% heat aggregated ovalbumin in saline) into the left hind foot pad. Swelling of the foot developed over a 24 hour period following which foot pad thickness was measured and compared to the pre-challenge thickness. The percentage increase in foot pad thickness was calculated. Compounds were delivered by continuous infusion at doses within the range from 10 mg/kg/day to 0.001 mg/kg/day from subcutaneous Alzet osmotic minipumps which were implanted 24 hours prior to the ovalbumin challenge. Inhibition of the inflammatory response was calculated comparing vehicle treated animals and compound treated groups (n=5 animals per group).

fibronectin [4] = settings: cited from earlier work

CLHGPEILDVPST
IC50 (α4β1): 30 µM

1-adamantaneacetyl-Cys-Gly-Arg-Gly-Asp-Ser-Pro-Cys ({Acetyl(1-adamantyl)}-CGRGDSPC; disulfide 1-8 (inferred))
IC50 (α4β1): 30 µM
function in αvβ3 as well as αIIbβIIIa-dependent assays [1]: inhibited function
binding of Jurkat cells to fibronectin coated plates (fibronectin [2]): inhibited the binding

c(Glu-TripLeu-Asp-Val)
IC50 [3]: 94 µM

c(Glu-Trp-Leu-Asp-Val-Asp) (EWLDVD; cyclised; printed: Glu-Trp-Leu-Asp-Val-Asp)
IC50 [3]: > 1000 µM

CC(C)C[C@@H]1NC(=O)[C@H](Cc2ccccc2)N(C)C(=O)[C@@H](CCCNC(=N)N)NC(=O)[C@@H](CCCNC(=N)N)NC(=O)[C@H](C(C)C)NC(=O)[C@H](CC(=O)O)NC1=O [compound 20, c(MePhe-Leu-Asp-Val-D-Arg-D-Arg)] (cyclo(DV[dR][dR][NMeF]L))
dose required to produce a half-maximal inhibitory response in DTH (Balb/C female mice): 0.01 mg/kg/day

Arg-Cys-Asp-thioproline-Cys
leukocyte cell adhesion to fibronectin (fibronectin [4]): inhibitor
binding to the 120 kDa chymotryptic fragment of fibronectin (fibronectin [4]; fragment contains the Arg-Gly-Asp central cell binding domain): inhibited the binding

c(Glu-Trp-Leu-Asp-Val-Pro-Glu-Trp-Leu-Asp-Val) (EWLDVPEWLDV; cyclised; printed: Glu-Trp-Leu-Asp-Val-Pro-Glu-Trp-Leu-Asp-Val)
IC50 [3]: > 1000 µM
